Holding throughout (assay): fluorescence polarisation
Assay [1] has as its target Bovine full-length RIα H23A (bovine).
For assay [2], the target named is Bovine full-length RIα Y19A (bovine).
In assay [3] the target is Bovine full-length RIα, wild type (bovine, UniProt P00514 1-380).
The target of assay [4] is Bovine full-length RIα C16A (bovine).
The target of assay [5] is Bovine full-length RIα C37A (bovine).

Chain of Bovine full-length RIα, wild type (P00514 whole entry): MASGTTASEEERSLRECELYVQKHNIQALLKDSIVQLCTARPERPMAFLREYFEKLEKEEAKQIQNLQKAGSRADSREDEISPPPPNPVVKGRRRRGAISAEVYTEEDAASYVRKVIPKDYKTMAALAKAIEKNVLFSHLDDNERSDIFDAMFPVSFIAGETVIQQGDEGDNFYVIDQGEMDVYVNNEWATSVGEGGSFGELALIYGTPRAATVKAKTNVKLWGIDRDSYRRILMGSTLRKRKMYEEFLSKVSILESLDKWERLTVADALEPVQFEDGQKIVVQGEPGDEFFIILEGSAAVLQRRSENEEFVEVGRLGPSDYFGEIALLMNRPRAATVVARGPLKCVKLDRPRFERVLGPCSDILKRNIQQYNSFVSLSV

B1: D-AKAP2 AKB peptide (residues 623-650), last residue changed to Cys, fluorescently labeled (peptide)
chain: VQGNTDEAQEELAWKIAKMIVSDVMQQC
modifications: fluorescin-5-maleimide or tetramethylrhodamine-5-maleimide on the Cys that replaces the last residue
With B1, the Kd in assay [1] was found to be 198 nM; in assay [2], 1330 nM; in assay [3], 48 nM; in assay [4], 126 nM; in assay [5], 745 nM.

As a reminder, the Kd is a measure of binding affinity in units of concentration. High values mean weaker binding, low ones tighter binding.

The values above are taken from paper PMC3090270 (Structure (London, England : 1993), 2010).
